# Laboratory results as given in US20150344570A1 (published 2015).
# T1: human FcγRIIb extracellular domain with C-terminal His tag (human, UniProt P31994 43-217)
# T1 construct: extracellular domain; also called FcgRIIb; 2b; not shown: His tag attached to the C terminus
# T1 sequence (looked up): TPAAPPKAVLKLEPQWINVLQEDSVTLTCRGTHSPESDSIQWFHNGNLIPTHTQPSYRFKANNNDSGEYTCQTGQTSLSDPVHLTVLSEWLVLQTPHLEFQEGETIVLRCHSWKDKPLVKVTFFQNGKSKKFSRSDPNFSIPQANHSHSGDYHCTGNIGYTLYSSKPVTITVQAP
# Biological target: T1, human FcγRIIb extracellular domain with …
# Experiment: SPR (Biacore T100), antibody captured on antigen peptide chip, FcγRIIb as analyte; relative binding
row,Binder,He/Con_2b
1,"GpH7-A5/GpH7-B3 variant P331_04F/GpL16-k0 (He Ab) (antibody, human IgG1, kappa, Anti-glypican-3 IgG1; mutation only in the GpH7-B3-derived H chain; also called P331F heterodimerized antibody) heavy 1: not shown heavy 2: not shown light: DIVMTQSPLSLPVTPGEPASISCQASESLVHSNRNTYLHWYLQKPGQSPQLLIYKVSNRFSGVPDRFSGSGSGTDFTLKISRVEAEDVGVYYCSQNTHVPPTFGQGTKVEIERTVAAPSVFIFPPSDEQLKSGTASVVCLLNNFYPREAKVQWKVDNALQSGNSQESVTEQDSKDSTYSLSSTLTLSKADYEKHKVYACEVTHQGLSSPVTKSFNRGEC",110 % of control GpH7-A5/GpH7-B3/GpL16-k0 (=100)
2,"GpH7-A5/GpH7-B3 variant S267_10E/GpL16-k0 (He Ab) (antibody, human IgG1, kappa, Anti-glypican-3 IgG1; mutation only in the GpH7-B3-derived H chain; also called S267E heterodimerized antibody) heavy 1: not shown heavy 2: not shown light: DIVMTQSPLSLPVTPGEPASISCQASESLVHSNRNTYLHWYLQKPGQSPQLLIYKVSNRFSGVPDRFSGSGSGTDFTLKISRVEAEDVGVYYCSQNTHVPPTFGQGTKVEIERTVAAPSVFIFPPSDEQLKSGTASVVCLLNNFYPREAKVQWKVDNALQSGNSQESVTEQDSKDSTYSLSSTLTLSKADYEKHKVYACEVTHQGLSSPVTKSFNRGEC",379 % of control GpH7-A5/GpH7-B3/GpL16-k0 (=100)
3,"GpH7-A5/GpH7-B3 variant S239_07I/GpL16-k0 (He Ab) (antibody, human IgG1, kappa, Anti-glypican-3 IgG1; mutation only in the GpH7-B3-derived H chain; also called S239I heterodimerized antibody) heavy 1: not shown heavy 2: not shown light: DIVMTQSPLSLPVTPGEPASISCQASESLVHSNRNTYLHWYLQKPGQSPQLLIYKVSNRFSGVPDRFSGSGSGTDFTLKISRVEAEDVGVYYCSQNTHVPPTFGQGTKVEIERTVAAPSVFIFPPSDEQLKSGTASVVCLLNNFYPREAKVQWKVDNALQSGNSQESVTEQDSKDSTYSLSSTLTLSKADYEKHKVYACEVTHQGLSSPVTKSFNRGEC",107 % of control GpH7-A5/GpH7-B3/GpL16-k0 (=100)
4,"GpH7-A5/GpH7-B3 variant S267_07I/GpL16-k0 (He Ab) (antibody, human IgG1, kappa, Anti-glypican-3 IgG1; mutation only in the GpH7-B3-derived H chain; also called S267I heterodimerized antibody) heavy 1: not shown heavy 2: not shown light: DIVMTQSPLSLPVTPGEPASISCQASESLVHSNRNTYLHWYLQKPGQSPQLLIYKVSNRFSGVPDRFSGSGSGTDFTLKISRVEAEDVGVYYCSQNTHVPPTFGQGTKVEIERTVAAPSVFIFPPSDEQLKSGTASVVCLLNNFYPREAKVQWKVDNALQSGNSQESVTEQDSKDSTYSLSSTLTLSKADYEKHKVYACEVTHQGLSSPVTKSFNRGEC",192 % of control GpH7-A5/GpH7-B3/GpL16-k0 (=100)
5,"GpH7-A5/GpH7-B3 variant S267_14T/GpL16-k0 (He Ab) (antibody, human IgG1, kappa, Anti-glypican-3 IgG1; mutation only in the GpH7-B3-derived H chain; also called S267T heterodimerized antibody) heavy 1: not shown heavy 2: not shown light: DIVMTQSPLSLPVTPGEPASISCQASESLVHSNRNTYLHWYLQKPGQSPQLLIYKVSNRFSGVPDRFSGSGSGTDFTLKISRVEAEDVGVYYCSQNTHVPPTFGQGTKVEIERTVAAPSVFIFPPSDEQLKSGTASVVCLLNNFYPREAKVQWKVDNALQSGNSQESVTEQDSKDSTYSLSSTLTLSKADYEKHKVYACEVTHQGLSSPVTKSFNRGEC",104 % of control GpH7-A5/GpH7-B3/GpL16-k0 (=100)

# Now from value to binder:
row,He/Con_2b,Binder
1,104 % of control GpH7-A5/GpH7-B3/GpL16-k0 (=100),"GpH7-A5/GpH7-B3 variant T335_08L/GpL16-k0 (He Ab) (antibody, human IgG1, kappa, Anti-glypican-3 IgG1; mutation only in the GpH7-B3-derived H chain; also called T335L heterodimerized antibody) heavy 1: not shown heavy 2: not shown light: DIVMTQSPLSLPVTPGEPASISCQASESLVHSNRNTYLHWYLQKPGQSPQLLIYKVSNRFSGVPDRFSGSGSGTDFTLKISRVEAEDVGVYYCSQNTHVPPTFGQGTKVEIERTVAAPSVFIFPPSDEQLKSGTASVVCLLNNFYPREAKVQWKVDNALQSGNSQESVTEQDSKDSTYSLSSTLTLSKADYEKHKVYACEVTHQGLSSPVTKSFNRGEC"
2,103 % of control GpH7-A5/GpH7-B3/GpL16-k0 (=100),"GpH7-A5/GpH7-B3 variant T335_04F/GpL16-k0 (He Ab) (antibody, human IgG1, kappa, Anti-glypican-3 IgG1; mutation only in the GpH7-B3-derived H chain; also called T335F heterodimerized antibody) heavy 1: not shown heavy 2: not shown light: DIVMTQSPLSLPVTPGEPASISCQASESLVHSNRNTYLHWYLQKPGQSPQLLIYKVSNRFSGVPDRFSGSGSGTDFTLKISRVEAEDVGVYYCSQNTHVPPTFGQGTKVEIERTVAAPSVFIFPPSDEQLKSGTASVVCLLNNFYPREAKVQWKVDNALQSGNSQESVTEQDSKDSTYSLSSTLTLSKADYEKHKVYACEVTHQGLSSPVTKSFNRGEC"
3,108 % of control GpH7-A5/GpH7-B3/GpL16-k0 (=100),"GpH7-A5/GpH7-B3 variant S298_08L/GpL16-k0 (He Ab) (antibody, human IgG1, kappa, Anti-glypican-3 IgG1; mutation only in the GpH7-B3-derived H chain; also called S298L heterodimerized antibody) heavy 1: not shown heavy 2: not shown light: DIVMTQSPLSLPVTPGEPASISCQASESLVHSNRNTYLHWYLQKPGQSPQLLIYKVSNRFSGVPDRFSGSGSGTDFTLKISRVEAEDVGVYYCSQNTHVPPTFGQGTKVEIERTVAAPSVFIFPPSDEQLKSGTASVVCLLNNFYPREAKVQWKVDNALQSGNSQESVTEQDSKDSTYSLSSTLTLSKADYEKHKVYACEVTHQGLSSPVTKSFNRGEC"
4,107 % of control GpH7-A5/GpH7-B3/GpL16-k0 (=100),"GpH7-A5/GpH7-B3 variant S337_10E/GpL16-k0 (He Ab) (antibody, human IgG1, kappa, Anti-glypican-3 IgG1; mutation only in the GpH7-B3-derived H chain; also called S337E heterodimerized antibody) heavy 1: not shown heavy 2: not shown light: DIVMTQSPLSLPVTPGEPASISCQASESLVHSNRNTYLHWYLQKPGQSPQLLIYKVSNRFSGVPDRFSGSGSGTDFTLKISRVEAEDVGVYYCSQNTHVPPTFGQGTKVEIERTVAAPSVFIFPPSDEQLKSGTASVVCLLNNFYPREAKVQWKVDNALQSGNSQESVTEQDSKDSTYSLSSTLTLSKADYEKHKVYACEVTHQGLSSPVTKSFNRGEC"
5,108 % of control GpH7-A5/GpH7-B3/GpL16-k0 (=100),"GpH7-A5/GpH7-B3 variant T335_09D/GpL16-k0 (He Ab) (antibody, human IgG1, kappa, Anti-glypican-3 IgG1; mutation only in the GpH7-B3-derived H chain; also called T335D heterodimerized antibody) heavy 1: not shown heavy 2: not shown light: DIVMTQSPLSLPVTPGEPASISCQASESLVHSNRNTYLHWYLQKPGQSPQLLIYKVSNRFSGVPDRFSGSGSGTDFTLKISRVEAEDVGVYYCSQNTHVPPTFGQGTKVEIERTVAAPSVFIFPPSDEQLKSGTASVVCLLNNFYPREAKVQWKVDNALQSGNSQESVTEQDSKDSTYSLSSTLTLSKADYEKHKVYACEVTHQGLSSPVTKSFNRGEC"
